The target of the test is T1, His6-σ^A_(C170), C-terminal residues 359–528 of σ^A, wildtype (M. tuberculosis, UniProt P9WGI1 359-528).
T1 sequence: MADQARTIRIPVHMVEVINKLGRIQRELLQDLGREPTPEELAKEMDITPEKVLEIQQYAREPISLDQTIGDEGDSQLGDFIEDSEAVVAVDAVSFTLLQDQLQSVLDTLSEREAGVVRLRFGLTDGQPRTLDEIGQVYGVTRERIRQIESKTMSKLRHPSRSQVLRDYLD
As to the kind of experiment: pull-down.

B1: tagless wildtype WhiB1, purified (from His6-SUMO-WhiB1) (natural protein)
chain: MDWRHKAVCRDEDPELFFPVGNSGPALAQIADAKLVCNRCPVTTECLSWALNTGQDSGVWGGMSEDERRALKRRNARTKARTGV
For the molecule B1, the binding result is listed as “binds”.
